Experimental data as given in publication PMC8782923, “A Klotho-derived peptide protects against kidney fibrosis by targeting TGF-β signaling” (Nature Communications, 2022).

Target: Recombinant TGF-β receptor 2 protein (UniProt P37173)
Assay: SPR; Biacore T200, 25 °C; TβR2 amine-coupled on a CM5 chip (50 µg/ml in 10 mM acetate pH 4.0); peptides in PBS injected at 60 µl/min, 180 s association, 540 s dissociation; 1:1 binding model

Recombinant TGF-β receptor 2 protein, sequence (P37173 23-166): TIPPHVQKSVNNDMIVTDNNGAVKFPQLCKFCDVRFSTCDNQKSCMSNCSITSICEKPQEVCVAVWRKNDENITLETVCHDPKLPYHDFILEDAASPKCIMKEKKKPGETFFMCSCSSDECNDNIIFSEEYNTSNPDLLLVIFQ

KP12 (peptide) gave a koff of 0.00233 s⁻¹.
